Source: US20260274955A1 (JANUX THERAPEUTICS, published 2026)

These binders were tested against T1, Anti-CD28 Fab (SEQ ID NOs: 202, 203) (assay: phage ELISA on captured biotinylated Fab;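 also: wells preblocked with or without CD28 antigen, then clonal phage supernatant added briefly, washed, and bound phage read out by ELISA using HRP-linked anti-M13 antibody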).
T1 construct: biotinylated and captured on neutravidin coated plates in the phage ELISA
T1 sequence (VH, as listed by the source, chain 1 of 2): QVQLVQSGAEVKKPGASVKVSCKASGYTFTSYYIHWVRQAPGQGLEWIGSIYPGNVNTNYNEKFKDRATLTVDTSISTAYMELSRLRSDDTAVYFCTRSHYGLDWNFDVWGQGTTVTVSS
T1 sequence (VL, as listed by the source, chain 2 of 2): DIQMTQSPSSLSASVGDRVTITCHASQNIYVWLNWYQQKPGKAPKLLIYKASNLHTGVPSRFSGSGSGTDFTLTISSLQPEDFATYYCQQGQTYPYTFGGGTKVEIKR
Description: (§1) Clonal phage were harvested as crude supernatants and screened via standard ELISAs. […] Prior to the addition of clonal phage, wells were incubated with blocking buffer and CD28 antigen or blocking buffer alone. Without washing or aspirating, clonal phage supernatants were then added to the wells and incubated for a short time. Wells were then washed followed by detection of bound phage using a horse radish conjugated anti-M13 antibody.

Binder	Anti-CD28 Fab signal
YCDGHMPEYMWKCL [Phage-170]	2.17
YCDGHAPEYMEKCL [Phage-254]	2.01
YCDGHLPEYLGKCL [Phage-274]	1.96
YCDGHTQEYMAKCL [Phage-168]	2.17
YCEGHLPVYMWKCL [Phage-169]	2.17
YCAGHSPEYMTKCL [Phage-171]	2.17
YCEGHSPEYMTKCL [Phage-251]	2.02
YCAGHAPEYMQKCL [Phage-174]	2.16
YCAGHAPEYIQKCL [Phage-172]	2.17
YCAGHLPEYMMKCL [Phage-248]	2.03
YCDGHVAEYRDKCL [Phage-173]	2.17
YCDGHSNEYMAKCL [Phage-175]	2.16
YCDGHSLEYMAKCL [Phage-180]	2.15
YCEGHLPQYLQKCL [Phage-176]	2.16
YCDGHVAEYMAKCL [Phage-177]	2.16
YCDGHLPEYMWKCI [Phage-178]	2.15
YCDGHSAEYMWKCL [Phage-179]	2.15
YCDGHSALYMWKCL [Phage-276]	1.96
YCDGHSSEYMIKCL [Phage-277]	1.95
YCDGHSAEYMQKCL [Phage-279]	1.95

Binder	Anti-CD28 Fab signal
YCQGHLPEYMSKCL [Phage-258]	2.01
YCEGHSLEYMGKCL [Phage-253]	2.02
YCAGHLEIYMNKCL [Phage-283]	1.94
YCEGHAREHMAKCL [Phage-250]	2.02
YCEGHAPQYIAKCL [Phage-246]	2.03
YCDGHLIEYMYKCL [Phage-278]	1.95
YCDGHSPMYIGKCL [Phage-247]	2.03
YCEGHRPEYMQKCL [Phage-249]	2.03
YCEGHSIQYMAKCL [Phage-252]	2.02
YCDGHMGVYYWKCL [Phage-255]	2.01
YCDGHEAQYMSKCL [Phage-256]	2.01
YCDGHSHEYMEKCL [Phage-257]	2.01
YCEGHLSQYMEKCL [Phage-281]	1.95
YCDGHLEQYRAKCL [Phage-273]	1.96
YCAGHSVEYMAKCL [Phage-275]	1.96
YCDGHLVEYMSKCL [Phage-280]	1.95
YCDGHSPEHIRKCL [Phage-282]	1.94
YCEGHLSEYMAKCL [Phage-284]	1.94
YCEGHLPIYLSKCL [Phage-285]	1.94
YCDGHLKEYQEKCL [Phage-299]	1.91

Each binder was assayed against T2, anti-CD28 Fab (SEQ ID NOs: 202, 203) (assay: phage binding ELISA; biotinylated Fab on neutravidin plate;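 also: clonal phage supernatants added to Fab wells pretreated with CD28 antigen or with blocking buffer only, bound phage read out via HRP-linked anti-M13 antibody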).
T2 construct: biotinylated and captured on neutravidin coated plates in the phage ELISA
T2 sequence (VH, as listed by the source, chain 1 of 2): as the sequence (VH, as listed by the source, chain 1 of 2) above
T2 sequence (VL, as listed by the source, chain 2 of 2): as the sequence (VL, as listed by the source, chain 2 of 2) above
Description: as §1

Binder	Anti-CD28 Fab (SEQ ID NOs: 202, 203) signal
YCDGHSQEYMWKCL [Phage-305]	1.9
YCDGHSQEYMLKCL [Phage-392]	1.76
YCDGHAPEYMKKCL [Phage-306]	1.9
YCDGHSKEYMHKCL [Phage-307]	1.9
YCDGHEPQYLEKCL [Phage-308]	1.9
YCDGHAEEYMSKCL [Phage-309]	1.9
YCDGHVEEYLYKCL [Phage-310]	1.9
YCAGHLEEYMDKCL [Phage-311]	1.9
YCDGHLSEYMAKCL [Phage-424]	1.72
YCDGHASEYMAKCL [Phage-407]	1.75
YCEGHLPEYMQKCL [Phage-404]	1.75
YCSGHLPEYMQKCL [Phage-403]	1.75
YCEGHLPDYMQKCL [Phage-412]	1.73
YCSGHLPEYMGKCL [Phage-417]	1.73
YCDGHSPEYMNKCL [Phage-399]	1.75
YCEGHSAEYMLKCL [Phage-401]	1.75
YCSGHSAEYMLKCL [Phage-411]	1.73
YCDGHIPEYLAKCL [Phage-391]	1.76
YCEGHAAEYMWKCL [Phage-353]	1.83
YCEGHAQEYMSKCL [Phage-439]	1.7
YCAGHSSEYIWKCL [Phage-362]	1.82
YCAGHSAEYMAKCL [Phage-419]	1.73
YCAGHSAEYMWKCL [Phage-433]	1.71
YCAGHSMEYMAKCL [Phage-435]	1.71
YCAGHLPEYLDKCL [Phage-430]	1.71
YCDGHLPMYFAKCM [Phage-351]	1.83
YCDGHSSEYIVKCL [Phage-352]	1.83
YCEGHSAEYIFKCL [Phage-354]	1.83
YCEGHSPMYMQKCM [Phage-355]	1.83
